B1: Aryl hydrocarbon receptor (Homo sapiens), P35869 (parent)
chain: MNSSSANITYASRKRRKPVQKTVKPIPAEGIKSNPSKRHRDRLNTELDRLASLLPFPQDVINKLDKLSVLRLSVSYLRAKSFFDVALKSSPTERNGGQDNCRAANFREGLNLQEGEFLLQALNGFVLVVTTDALVFYASSTIQDYLGFQQSDVIHQSVYELIHTEDRAEFQRQLHWALNPSQCTESGQGIEEATGLPQTVVCYNPDQIPPENSPLMERCFICRLRCLLDNSSGFLAMNFQGKLKYLHGQKKKGKDGSILPPQLALFAIATPLQPPSILEIRTKNFIFRTKHKLDFTPIGCDAKGRIVLGYTEAELCTRGSGYQFIHAADMLYCAESHIRMIKTGESGMIVFRLLTKNNRWTWVQSNARLLYKNGRPDYIIVTQRPLTDEEGTEHLRKRNTKLPFMFTTGEAVLYEATNPFPAIMDPLPLRTKNGTSGKDSATTSTLSKDSLNPSSLLAAMMQQDESIYLYPASSTSSTAPFENNFFNESMNECRNWQDNTAPMGNDTILKHEQIDQPQDVNSFAGGHPGLFQDSKNSDLYSIMKNLGIDFEDIRHMQNEKFFRNDFSGEVDFRDIDLTDEILTYVQDSLSKSPFIPSDYQQQQSLALNSSCMVQEHLHLEQQQQHHQKQVVVEPQQQLCQKMKHMQVNGMFENWNSNQFVPFNCPQQDPQQYNVFTDLHGISQEFPYKSEMDSMPYTQNFISCNQPVLPQHSKCTELDYPMGSFEPSPYPTTSSLEDFVTCLQLPENQKHGLNPQSAIITPQTCYAGAVSMYQCQPEPQHTHVGQMQYNPVLPGQQAFLNKFQNGVLNETYPAELNNINNTQTTTHLQPLHHPSEARPFPDLTSSGFL
partner: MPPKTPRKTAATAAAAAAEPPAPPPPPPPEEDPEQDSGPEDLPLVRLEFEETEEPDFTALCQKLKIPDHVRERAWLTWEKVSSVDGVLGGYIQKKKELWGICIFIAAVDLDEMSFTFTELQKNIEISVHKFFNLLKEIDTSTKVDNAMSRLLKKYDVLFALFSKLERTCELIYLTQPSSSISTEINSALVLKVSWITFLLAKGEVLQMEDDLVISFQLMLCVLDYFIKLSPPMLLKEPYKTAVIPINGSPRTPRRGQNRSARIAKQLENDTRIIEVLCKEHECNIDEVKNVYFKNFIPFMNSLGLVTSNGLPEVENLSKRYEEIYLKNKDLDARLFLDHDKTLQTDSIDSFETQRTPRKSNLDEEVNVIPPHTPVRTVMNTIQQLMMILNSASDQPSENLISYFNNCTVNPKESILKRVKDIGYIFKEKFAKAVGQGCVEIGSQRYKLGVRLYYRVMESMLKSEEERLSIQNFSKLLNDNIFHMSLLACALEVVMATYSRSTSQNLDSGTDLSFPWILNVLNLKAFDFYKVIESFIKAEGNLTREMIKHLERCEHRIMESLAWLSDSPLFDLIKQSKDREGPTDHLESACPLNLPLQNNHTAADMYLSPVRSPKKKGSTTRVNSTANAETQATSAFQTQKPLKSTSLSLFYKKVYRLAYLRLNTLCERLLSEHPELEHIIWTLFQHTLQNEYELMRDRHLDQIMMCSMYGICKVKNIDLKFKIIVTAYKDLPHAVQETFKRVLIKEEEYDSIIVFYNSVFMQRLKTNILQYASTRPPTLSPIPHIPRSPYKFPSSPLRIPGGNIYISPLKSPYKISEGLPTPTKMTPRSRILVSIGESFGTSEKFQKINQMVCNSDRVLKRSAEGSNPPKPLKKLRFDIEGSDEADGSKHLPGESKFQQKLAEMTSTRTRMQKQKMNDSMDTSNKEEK

Variants of: B1
Details: with rb_human RB1, P06400

Effect of a mutation on the interaction, disrupting interaction strength:
C333A
L331A
E335A

Reference: IntAct's records for PubMed 11259609
